{"source": "paper PMC10864275", "about": "(2024)", "key": {"[1]": {"target": "T1, avi-β1AR-W (turkey β1-adrenergic receptor, β1AR-MetΔ5 construct with N-terminal biotinylated avi-tag) (turkey, UniProt P07700 1-367, Δ3-32 | Δ244-271 | C358A^8.59 | C116L^3.27 | R68S^1.59 | E130W^3.41 | …, biotin on the avi-tag)", "T1 sequence (P07700 other isoform, or with tags, fused parts or gaps with the stated changes)": "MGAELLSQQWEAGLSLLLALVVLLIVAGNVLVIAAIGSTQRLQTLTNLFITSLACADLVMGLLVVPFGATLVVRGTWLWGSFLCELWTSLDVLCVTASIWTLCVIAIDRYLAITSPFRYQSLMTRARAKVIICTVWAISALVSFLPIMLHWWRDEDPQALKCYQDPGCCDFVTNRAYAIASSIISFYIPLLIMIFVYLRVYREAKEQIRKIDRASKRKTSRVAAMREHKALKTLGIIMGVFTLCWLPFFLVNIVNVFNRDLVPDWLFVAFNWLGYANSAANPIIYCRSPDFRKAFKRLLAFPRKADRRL", "assay": "BLI; isoprenaline"}, "[2]": {"target": "T2, avi-β1AR-E (turkey β1-adrenergic receptor, β1AR-E construct with N-terminal biotinylated avi-tag) (turkey, UniProt P07700 1-367, Δ3-32 | Δ244-271 | C358A^8.59 | C116L^3.27 | R68S^1.59 | F327A^7.37 | …, biotin on the avi-tag)", "T2 sequence (P07700 other isoform, or with tags, fused parts or gaps with the stated changes)": "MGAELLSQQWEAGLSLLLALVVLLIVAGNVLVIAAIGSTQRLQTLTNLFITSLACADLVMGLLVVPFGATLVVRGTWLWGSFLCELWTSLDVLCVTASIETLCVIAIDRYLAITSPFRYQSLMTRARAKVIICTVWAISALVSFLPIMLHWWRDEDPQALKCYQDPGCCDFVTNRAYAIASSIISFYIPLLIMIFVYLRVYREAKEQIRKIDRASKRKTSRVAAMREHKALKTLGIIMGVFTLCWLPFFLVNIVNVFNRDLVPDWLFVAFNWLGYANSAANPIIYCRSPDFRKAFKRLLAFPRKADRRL", "assay": "BLI; isoprenaline"}, "[3]": {"target": "T1, avi-β1AR-W (turkey β1-adrenergic …)", "assay": "BLI; isoprenaline", "remark": "listed apart in the source"}, "[4]": {"target": "T1, avi-β1AR-W (turkey β1-adrenergic …)", "assay": "BLI; xamoterol"}, "[5]": {"target": "T2, avi-β1AR-E (turkey β1-adrenergic …)", "assay": "BLI; xamoterol"}, "[6]": {"target": "T1, avi-β1AR-W (turkey β1-adrenergic …)", "assay": "BLI; isoprenaline", "remark": "listed apart in the source"}, "[7]": {"target": "T2, avi-β1AR-E (turkey β1-adrenergic …)", "assay": "BLI; isoprenaline", "remark": "listed apart in the source"}, "[8]": {"target": "T1, avi-β1AR-W (turkey β1-adrenergic …)", "assay": "BLI; salbutamol"}, "[9]": {"target": "T2, avi-β1AR-E (turkey β1-adrenergic …)", "assay": "BLI; salbutamol"}, "[10]": {"target": "T1, avi-β1AR-W (turkey β1-adrenergic …)", "assay": "BLI; isoprenaline", "remark": "listed apart in the source"}}, "note": "Where two headings read alike, the source gives them in different places."}
{"binder": "mini-Go1 R12 (domain or fragment) IEKNLKEDGISAAKDVKLLLLGADNSGKSTIVKQMKIIHTTGIVETHFTFKNLHFRLFDVGGQRSERKKWIHCFEDVTAIIFCVDLSDYNRMHESLMLFDSICNNKFFIDTSIILFLNKKDLFGEKIKKSPLTICFPEYTGPNTYEDAAAYIQAQFESKNRSPNKEIYCHMTCATDTNNAQVIFDAVTDIIIANNLRGCGLY", "values": [{"measurement": "koff", "setting": "[1]", "value": 0.00941, "unit": "s⁻¹"}, {"measurement": "koff", "setting": "[2]", "value": 0.00393, "unit": "s⁻¹"}, {"measurement": "Kd", "setting": "[3]", "value": 7410, "unit": "nM"}]}
{"binder": "mini-Gs/q R70 (domain or fragment) IEKQLQKDKQVYRATHRLLLLGADNSGKSTIVKQMRIYHTSGIFETKFQVDKVNFHMFDVGGQRDERRKWIQCFNDVTAIIFVVDSSDYNRLQEALNDFKSIWNNRWLRTISVILFLNKQDLLAEKVLAGKSKIEDYFPEFARYTTPEDATPEPGEDPRVTRAKYFIRDEFLRISTASGDGRHYCYPHFTCAVDTENARRIFNDCKDIILQMNLREYNLV", "values": [{"measurement": "koff", "setting": "[1]", "value": 0.0067, "unit": "s⁻¹"}, {"measurement": "koff", "setting": "[2]", "value": 0.00343, "unit": "s⁻¹"}, {"measurement": "Kd", "setting": "[3]", "value": 534, "unit": "nM"}]}
{"binder": "mini-Gs/i R43 with C96A (domain or fragment) IEKQLQKDKQVYRATHRLLLLGADNSGKSTIVKQMRIYHTSGIFETKFQVDKVNFHMFDVGGQRDERRKWIQAFNDVTAIIFVVDSSDYNRLQEALNDFKSIWNNRWLRTISVILFLNKQDLLAEKVLAGKSKIEDYFPEFARYTTPEDATPEPGEDPRVTRAKYFIRDEFLRISTASGDGRHYCYPHFTCAVDTENARRIFNDVTDIIIKMNLRDCGLF", "values": [{"measurement": "koff", "setting": "[1]", "value": 0.00623, "unit": "s⁻¹"}, {"measurement": "koff", "setting": "[2]", "value": 0.00397, "unit": "s⁻¹"}, {"measurement": "Kd", "setting": "[3]", "value": 2530, "unit": "nM"}]}
{"binder": "mini-Gs 393 with C96A (domain or fragment) GIEKQLQKDKQVYRATHRLLLLGADNSGKSTIVKQMRIYHGGSGGSGGTSGIFETKFQVDKVNFHMFDVGGQRDERRKWIQAFNDVTAIIFVVDSSDYNRLQEALNDFKSIWNNRWLRTISVILFLNKQDLLAEKVLAGKSKIEDYFPEFARYTTPEDATPEPGEDPRVTRAKYFIRDEFLRISTASGDGRHYCYPHFTCAVDTENARRIFNDCRDIIQRMHLRQYELL", "values": [{"measurement": "Kd", "setting": "[4]", "value": 2970, "unit": "nM"}, {"measurement": "Kd", "setting": "[5]", "value": 2360, "unit": "nM"}, {"measurement": "koff", "setting": "[6]", "value": 0.00625, "unit": "s⁻¹"}, {"measurement": "koff", "setting": "[7]", "value": 0.00689, "unit": "s⁻¹"}, {"measurement": "Kd", "setting": "[8]", "value": 1460, "unit": "nM"}, {"measurement": "Kd", "setting": "[9]", "value": 962, "unit": "nM"}, {"measurement": "Kd", "setting": "[10]", "value": 161, "unit": "nM"}]}
